{"source": "the Human Domainome abundance scans (Beltran et al. 2025)", "parents": {"B1": {"name": "RAS guanyl-releasing protein 1, residues 539 to 593; numbered along this chain, O95267 (parent)", "chain": "GFPHNFQETTYLKPTFCDNCAGFLWGVIKQGYRCKDCGMNCHKQCKDLVVFECKK"}}, "note": "± gives the uncertainty stated by the source."}
{"variants_of": "B1", "assay": "abundance fitness (aPCA) (normalised: wild type 0, dead -1); higher = more abundant; growth selection in yeast, the domain comes from the species named", "settings": "Homo sapiens"}
{"variant": "GFPHNFQETTYLKPTFCDHCAGFLWGVIKQGYRCKDCGMNCHKQCKDLVVFECKK", "abundance fitness": "-0.02 ± 0.12"}
{"variant": "GFPHNFQETTYLKPTFCDMCAGFLWGVIKQGYRCKDCGMNCHKQCKDLVVFECKK", "abundance fitness": "0.135 ± 0.11"}
{"variant": "GFPHNFQETTYLKPTFCDWCAGFLWGVIKQGYRCKDCGMNCHKQCKDLVVFECKK", "abundance fitness": "0.082 ± 0.057"}
{"variant": "GFPHNFQETTYLKPTFCDSCAGFLWGVIKQGYRCKDCGMNCHKQCKDLVVFECKK", "abundance fitness": "0.05 ± 0.062"}
{"variant": "GFPHNFQETTYLKPTFCDFCAGFLWGVIKQGYRCKDCGMNCHKQCKDLVVFECKK", "abundance fitness": "0.068 ± 0.094"}
{"variant": "GFPHNFQETTYLKPTFCDGCAGFLWGVIKQGYRCKDCGMNCHKQCKDLVVFECKK", "abundance fitness": "0.134 ± 0.051"}
{"variant": "GFPHNFQETTYLKPTFCDLCAGFLWGVIKQGYRCKDCGMNCHKQCKDLVVFECKK", "abundance fitness": "-0.018 ± 0.084"}
{"variant": "GFPHNFQETTYLKPTFCDQCAGFLWGVIKQGYRCKDCGMNCHKQCKDLVVFECKK", "abundance fitness": "-0.29 ± 0.17"}
{"variant": "GFPHNFQETTYLKPTFCDACAGFLWGVIKQGYRCKDCGMNCHKQCKDLVVFECKK", "abundance fitness": "0.065 ± 0.084"}
{"variant": "GFPHNFQETTYLKPTFCDCCAGFLWGVIKQGYRCKDCGMNCHKQCKDLVVFECKK", "abundance fitness": "-0.061 ± 0.093"}
{"variant": "GFPHNFQETTYLKPTFCDDCAGFLWGVIKQGYRCKDCGMNCHKQCKDLVVFECKK", "abundance fitness": "-0.101 ± 0.11"}
{"variant": "GFPHNFQETTYLKPTFCDECAGFLWGVIKQGYRCKDCGMNCHKQCKDLVVFECKK", "abundance fitness": "0.11 ± 0.1"}
{"variant": "GFPHNFQETTYLKPTFCDRCAGFLWGVIKQGYRCKDCGMNCHKQCKDLVVFECKK", "abundance fitness": "-0.036 ± 0.06"}
{"variant": "GFPHNFQETTYLKPTFCDTCAGFLWGVIKQGYRCKDCGMNCHKQCKDLVVFECKK", "abundance fitness": "-0.043 ± 0.056"}
{"variant": "GFPHNFQETTYLKPTFCDVCAGFLWGVIKQGYRCKDCGMNCHKQCKDLVVFECKK", "abundance fitness": "-0.02 ± 0.062"}
{"variant": "GFPHNFQETTYLKPTFCDYCAGFLWGVIKQGYRCKDCGMNCHKQCKDLVVFECKK", "abundance fitness": "-0.142 ± 0.084"}
{"variant": "GFPHNFQETTYLKPTFCDICAGFLWGVIKQGYRCKDCGMNCHKQCKDLVVFECKK", "abundance fitness": "-0.163 ± 0.17"}
{"variant": "GFPHNFQETTYLKPTFCDKCAGFLWGVIKQGYRCKDCGMNCHKQCKDLVVFECKK", "abundance fitness": "-0.052 ± 0.075"}
{"variant": "GFPHNFQETTYLKPTFCDNGAGFLWGVIKQGYRCKDCGMNCHKQCKDLVVFECKK", "abundance fitness": "-1.12 ± 0.081"}
{"variant": "GFPHNFQETTYLKPTFCDNAAGFLWGVIKQGYRCKDCGMNCHKQCKDLVVFECKK", "abundance fitness": "-1.01 ± 0.089"}
{"variant": "GFPHNFQETTYLKPTFCDNHAGFLWGVIKQGYRCKDCGMNCHKQCKDLVVFECKK", "abundance fitness": "-0.695 ± 0.34"}
{"variant": "GFPHNFQETTYLKPTFCDNDAGFLWGVIKQGYRCKDCGMNCHKQCKDLVVFECKK", "abundance fitness": "-0.541 ± 0.096"}
{"variant": "GFPHNFQETTYLKPTFCDNQAGFLWGVIKQGYRCKDCGMNCHKQCKDLVVFECKK", "abundance fitness": "-1.01 ± 0.21"}
{"variant": "GFPHNFQETTYLKPTFCDNMAGFLWGVIKQGYRCKDCGMNCHKQCKDLVVFECKK", "abundance fitness": "-1.05 ± 0.17"}
{"variant": "GFPHNFQETTYLKPTFCDNLAGFLWGVIKQGYRCKDCGMNCHKQCKDLVVFECKK", "abundance fitness": "-0.974 ± 0.21"}
{"variant": "GFPHNFQETTYLKPTFCDNEAGFLWGVIKQGYRCKDCGMNCHKQCKDLVVFECKK", "abundance fitness": "-0.931 ± 0.2"}
{"variant": "GFPHNFQETTYLKPTFCDNRAGFLWGVIKQGYRCKDCGMNCHKQCKDLVVFECKK", "abundance fitness": "-0.74 ± 0.22"}
{"variant": "GFPHNFQETTYLKPTFCDNNAGFLWGVIKQGYRCKDCGMNCHKQCKDLVVFECKK", "abundance fitness": "-1.29 ± 0.39"}
{"variant": "GFPHNFQETTYLKPTFCDNSAGFLWGVIKQGYRCKDCGMNCHKQCKDLVVFECKK", "abundance fitness": "-1.24 ± 0.4"}
{"variant": "GFPHNFQETTYLKPTFCMNCAGFLWGVIKQGYRCKDCGMNCHKQCKDLVVFECKK", "abundance fitness": "-0.079 ± 0.096"}
{"variant": "GFPHNFQETTYLKPTFCHNCAGFLWGVIKQGYRCKDCGMNCHKQCKDLVVFECKK", "abundance fitness": "-0.383 ± 0.27"}
{"variant": "GFPHNFQETTYLKPTFCSNCAGFLWGVIKQGYRCKDCGMNCHKQCKDLVVFECKK", "abundance fitness": "0.028 ± 0.084"}
{"variant": "GFPHNFQETTYLKPTFCTNCAGFLWGVIKQGYRCKDCGMNCHKQCKDLVVFECKK", "abundance fitness": "0.205 ± 0.07"}
{"variant": "GFPHNFQETTYLKPTFCPNCAGFLWGVIKQGYRCKDCGMNCHKQCKDLVVFECKK", "abundance fitness": "-0.732 ± 0.12"}
{"variant": "GFPHNFQETTYLKPTFCVNCAGFLWGVIKQGYRCKDCGMNCHKQCKDLVVFECKK", "abundance fitness": "-0.132 ± 0.088"}
{"variant": "GFPHNFQETTYLKPTFCRNCAGFLWGVIKQGYRCKDCGMNCHKQCKDLVVFECKK", "abundance fitness": "-0.059 ± 0.084"}
{"variant": "GFPHNFQETTYLKPTFCENCAGFLWGVIKQGYRCKDCGMNCHKQCKDLVVFECKK", "abundance fitness": "-0.087 ± 0.074"}
{"variant": "GFPHNFQETTYLKPTFCLNCAGFLWGVIKQGYRCKDCGMNCHKQCKDLVVFECKK", "abundance fitness": "-0.013 ± 0.095"}
{"variant": "GFPHNFQETTYLKPTFCCNCAGFLWGVIKQGYRCKDCGMNCHKQCKDLVVFECKK", "abundance fitness": "-0.253 ± 0.1"}
{"variant": "GFPHNFQETTYLKPTFCFNCAGFLWGVIKQGYRCKDCGMNCHKQCKDLVVFECKK", "abundance fitness": "-0.063 ± 0.099"}
{"variant": "GFPHNFQETTYLKPTFCGNCAGFLWGVIKQGYRCKDCGMNCHKQCKDLVVFECKK", "abundance fitness": "-0.294 ± 0.086"}
{"variant": "GFPHNFQETTYLKPTFCINCAGFLWGVIKQGYRCKDCGMNCHKQCKDLVVFECKK", "abundance fitness": "-0.142 ± 0.09"}
{"variant": "GFPHNFQETTYLKPTFCQNCAGFLWGVIKQGYRCKDCGMNCHKQCKDLVVFECKK", "abundance fitness": "-0.001 ± 0.07"}
{"variant": "GFPHNFQETTYLKPTFCANCAGFLWGVIKQGYRCKDCGMNCHKQCKDLVVFECKK", "abundance fitness": "-0.016 ± 0.088"}
{"variant": "GFPHNFQETTYLKPTFCNNCAGFLWGVIKQGYRCKDCGMNCHKQCKDLVVFECKK", "abundance fitness": "-0.026 ± 0.096"}
{"variant": "GFPHNFQETTYLKPTFCKNCAGFLWGVIKQGYRCKDCGMNCHKQCKDLVVFECKK", "abundance fitness": "-0.017 ± 0.12"}
{"variant": "GFPHNFQETTYLKPTFCWNCAGFLWGVIKQGYRCKDCGMNCHKQCKDLVVFECKK", "abundance fitness": "0.123 ± 0.11"}
{"variant": "GFPHNFQETTYLKPTFCYNCAGFLWGVIKQGYRCKDCGMNCHKQCKDLVVFECKK", "abundance fitness": "-0.315 ± 0.17"}
